From paper PMC12630686, “A degron-mimicking molecular glue drives CRBN homo-dimerization and degradation” (Nature Communications, 2025)

B1: HaloTag-CRBN (human, wild type) [human] / hCRBN-NanoLuc with a 191-248 aa deletion (Trunc) [human] (parent)
chain 1: MAGEGDQQDAAHNMGNHLPLLPAESEEEDEMEVEDQDSKEAKKPNIINFDTSLPTSHTYLGADMEEFHGRTLHDDDSCQVIPVLPQVMMILIPGQTLPLQLFHPQEVSMVRNLIQKDRTFAVLAYSNVQEREAQFGTTAEIYAYREEQDFGIEIVKVKAIGRQRFKVLELRTQSDGIQQAKVQILPECVLPSTMSAVQLESLNKCQIFPSKPVSREDQCSYKWWQKYQKRKFHCANLTSWPRWLYSLYDAETLMDRIKKQLREWDENLKDDSLPSNPIDFSYRVAACLPIDDVLRIQLLKIGSAIQRLRCELDIMNKCTSLCCKQCQETEITTKNEIFSLSLCGPMAAYVNPHGYVHETLTVYKACNLNLIGRPSTEHSWFPGYAWTVAQCKICASHIGWKFTATKKDMSPQKFWGLTRSALLPTIPDTEDEISPDKVILCL
chain 2: MAGEGDQQDAAHNMGNHLPLLPAESEEEDEMEVEDQDSKEAKKPNIINFDTSLPTSHTYLGADMEEFHGRTLHDDDSCQVIPVLPQVMMILIPGQTLPLQLFHPQEVSMVRNLIQKDRTFAVLAYSNVQEREAQFGTTAEIYAYREEQDFGIEIVKVKAIGRQRFKVLELRTQSDGIQQAKVQILPECVLDAETLMDRIKKQLREWDENLKDDSLPSNPIDFSYRVAACLPIDDVLRIQLLKIGSAIQRLRCELDIMNKCTSLCCKQCQETEITTKNEIFSLSLCGPMAAYVNPHGYVHETLTVYKACNLNLIGRPSTEHSWFPGYAWTVAQCKICASHIGWKFTATKKDMSPQKFWGLTRSALLPTIPDTEDEISPDKVILCL
B2: HaloTag-mouse CRBN (wild type) [mouse] / hCRBN-NanoLuc with a 191-248 aa deletion (Trunc) [human] (parent)
chain 1: MAGEGDQQDAAHNMGNHLPLLPADSEDEDDEIEMEVEDQDSKEARKPNIINFDTSLPTSHTYLGADMEEFHGRTLHDDDSCQVIPVLPEVLMILIPGQTLPLQLSHPQEVSMVRNLIQKDRTFAVLAYSNVQEREAQFGTTAEIYAYREEQEFGIEVVKVKAIGRQRFKVLELRTQSDGIQQAKVQILPECVLPSTMSAVQLESLNKCQVFPSKPISWEDQYSCKWWQKYQKRKFHCANLTSWPRWLYSLYDAETLMDRIKKQLREWDENLKDDSLPENPIDFSYRVAACLPIDDVLRIQLLKIGSAIQRLRCELDIMNKCTSLCCKQCQETEITTKNEIFSLSLCGPMAAYVNPHGYVHETLTVYKASNLNLIGRPSTVHSWFPGYAWTIAQCKICASHIGWKFTATKKDMSPQKFWGLTRSALLPTIPETEDEISPDKVILCL
chain 2: B1 chain 2

Variants of: B1
Assay: NanoBRET
Conditions: with hCRBN-NanoLuc with a 191-248 aa deletion (Trunc) [human]; MRT-31619 at log10 concentration = 4 (highest dose; concentration unit inferred); three biological replicates, mean ± SEM; read off a plot

| response [mBU] | Variant |
| --- | --- |
| 3.7 | chain 1 F150A |
| 2.9 | chain 1 F150A R373A |
| 2.6 | chain 1 R373A |
| 3.3 | chain 1 E377A |

Variants of: B2
Assay: NanoBRET
Conditions: with hCRBN-NanoLuc with a 191-248 aa deletion (Trunc) [human]; MRT-31619 at log10 concentration = 4 (highest dose; concentration unit inferred); six biological replicates, mean ± SD; read off a plot

| response [mBU] | Variant |
| --- | --- |
| 2.7 | chain 1 V380E I391V |
| 1.9 | chain 1 S105F |
